Numbering of substitutions follows the chain as printed. Read-outs that look alike come from different tables or passages of the source.
T1: MutS-E41A (Thermus aquaticus, UniProt Q56215 1-811, E41A)
T1 sequence: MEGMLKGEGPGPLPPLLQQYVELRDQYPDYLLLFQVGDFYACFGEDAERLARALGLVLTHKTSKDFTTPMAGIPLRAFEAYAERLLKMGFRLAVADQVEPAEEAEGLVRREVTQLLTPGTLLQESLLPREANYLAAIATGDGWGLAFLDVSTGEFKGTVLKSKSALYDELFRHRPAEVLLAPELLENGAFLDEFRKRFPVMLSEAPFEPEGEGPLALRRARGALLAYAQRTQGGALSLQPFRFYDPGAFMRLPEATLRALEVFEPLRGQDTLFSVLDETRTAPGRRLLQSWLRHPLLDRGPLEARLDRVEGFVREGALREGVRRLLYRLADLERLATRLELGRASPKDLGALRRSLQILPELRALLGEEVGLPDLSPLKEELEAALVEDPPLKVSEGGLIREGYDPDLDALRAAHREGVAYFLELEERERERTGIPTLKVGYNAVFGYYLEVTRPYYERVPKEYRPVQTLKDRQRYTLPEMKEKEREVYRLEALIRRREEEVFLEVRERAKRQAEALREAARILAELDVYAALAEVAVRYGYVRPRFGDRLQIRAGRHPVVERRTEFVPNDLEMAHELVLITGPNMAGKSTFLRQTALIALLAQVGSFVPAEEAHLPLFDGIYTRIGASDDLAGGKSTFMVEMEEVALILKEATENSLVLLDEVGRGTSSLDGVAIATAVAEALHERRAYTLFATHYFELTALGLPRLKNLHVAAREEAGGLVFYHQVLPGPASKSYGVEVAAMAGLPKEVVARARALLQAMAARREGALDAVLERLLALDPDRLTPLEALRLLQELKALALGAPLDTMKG

T2: MutS (Thermus aquaticus, UniProt Q56215 1-811)
T2 sequence: T1 sequence with A41E

B1: GT mismatch DNA (A1/B1/C1-GT) (dsDNA)
DNA 1: TGTCGGGGCTGGCTTAAGGTGTGAAATACCTCATCTCGAGCGTGCCGATA
DNA 2: TATCGGCACGTTCGAGATG
DNA 3: AGGTATTTCACACCTTAAGCCAGCCCCGACA
B2: T-bulge DNA (A1/B1/C2-T-bulge) (dsDNA)
DNA 1: B1 DNA 1
DNA 2: TATCGGCACGTCTCGAGATG
DNA 3: B1 DNA 3

Key:
Test in all cases: smFRET
[1] = target: T1, MutS-E41A
[2] = target: T2, MutS
[3] = target: T1, MutS-E41A; remark: listed apart in the source
[4] = target: T2, MutS; remark: listed apart in the source

| Binder | binding result [1] | binding result [2] | binding result [3] | binding result [4] |
| --- | --- | --- | --- | --- |
| B1 | binds | binds |  |  |
| B2 |  |  | binds | binds |
